# Target: the molecule itself
# Assay: native gel or EMSA; pore-limited native PAGE of purified recombinant A2M; dimers that failed to tetramerize were removed during purification (Fig. S2)
protein,measurement,value
"tabula rasa A2M (bait region replaced by 13 Gly-Gly-Ser repeats) (natural protein, human, human alpha2-macroglobulin from its N-terminus to residue 689, the residue before the bait region (residues 690-728); tabula rasa bait region: 13 Gly-Gly-Ser repeats in place of the 39 residues 690-728, told in words; human alpha2-macroglobulin from residue 729, the residue after the bait region, to the C-terminus; Dimers removed during purification; also called A2M TR; A2M tabula rasa) SVSGKPQYMVLVPSLLHTETTEKGCVLLSYLNETVTVSASLESVRGNRSLFTDLEAENDVLHCVAFAVPKSSSNEEVMFLTVQVKGPTQEFKKRTTVMVKNEDSLVFVQTDKSIYKPGQTVKFRVVSMDENFHPLNELIPLVYIQDPKGNRIAQWQSFQLEGGLKQFSFPLSSEPFQGSYKVVVQKKSGGRTEHPFTVEEFVLPKFEVQVTVPKIITILEEEMNVSVCGLYTYGKPVPGHVTVSICRKYSDASDCHGEDSQAFCEKFSGQLNSHGCFYQQVKTKVFQLKRKEYEMKLHTEAQIQEEGTVVELTGRQSSEITRTITKLSFVKVDSHFRQGIPFFGQVRLVDGKGVPIPNKVIFIRGNEANYYSNATTDEHGLVQFSINTTNVMGTSLTVRVNYKDRSPCYGYQWVSEEHEEAHHTAYLVFSPSKSFVHLEPMSHELPCGHTQTVQAHYILNGGTLLGLKKLSFYYLIMAKGGIVRTGTHGLLVKQEDMKGHFSISIPVKSDIAPVARLLIYAVLPTGDVIGDSAKYDVENCLANKVDLSFSPSQSLPASHAHLRVTAAPQSVCALRAVDQSVLLMKPDAELSASSVYNLLPEKDLTGFPGPLNDQDNEDCINRHNVYINGITYTPVSSTNEKDMYSFLEDMGLKAFTNSKIRKPKMCGGSGGSGGSGGSGGSGGSGGSGGSGGSGGSGGSGGSGGSETVRKYFPETWIWDLVVVNSAGVAEVGVTVPDTITEWKAGAFCLSEDAGLGISSTASLRAFQPFFVELTMPYSVIRGEAFTLKATVLNYLPKCIRVSVQLEASPAFLAVPVEKEQAPHCICANGRQTVSWAVTPKSLGNVNFTVSAEALESQELCGTEVPSVPEHGRKDTVIKPLLVEPEGLEKETTFNSLLCPSGGEVSEELSLKLPPNVVEESARASVSVLGDILGSAMQNTQNLLQMPYGCGEQNMVLFAPNIYVLDYLNETQQLTPEIKSKAIGYLNTGYQRQLNYKHYDGSYSTFGERYGRNQGNTWLTAFVLKTFAQARAYIFIDEAHITQALIWLSQRQKDNGCFRSSGSLLNNAIKGGVEDEVTLSAYITIALLEIPLTVTHPVVRNALFCLESAWKTAQEGDHGSHVYTKALLAYAFALAGNQDKRKEVLKSLNEEAVKKDNSVHWERPQKPKAPVGHFYEPQAPSAEVEMTSYVLLAYLTAQPAPTSEDLTSATNIVKWITKQQNAQGGFSSTQDTVVALHALSKYGAATFTRTGKAAQVTIQSSGTFSSKFQVDNNNRLLLQQVSLPELPGEYSMKVTGEGCVYLQTSLKYNILPEKEEFPFALGVQTLPQTCDEPKAHTSFQISLSVSYTGSRSASNMAIVDVKMVSGFIPLKPTVKMLERSNHVSRTEVSSNHVLIYLDKVSNQTLSLFFTVLQDVPVRDLKPAIVKVYDYYETDEFAIAEYNAPCSKDLGNA",stoichiometry N,4
